Source: patent publication US20220403022A1 (Merck KGaA, published 2022)
Numbering of substitutions follows the chain as printed. “And” between values parts separate entries of the source, which are not always exact repeats. Equal entries are not always repeated.

Experiments:
[1] = target: T1, human TIGIT ECD expressed on the CHO-S cell surface (human, UniProt Q495A1 22-141); test: cell-based or functional assay
T1 sequence: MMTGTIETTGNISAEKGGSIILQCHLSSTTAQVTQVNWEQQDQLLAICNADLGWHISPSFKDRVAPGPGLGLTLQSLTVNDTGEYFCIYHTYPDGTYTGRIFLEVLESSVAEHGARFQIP

[2] = target: T2, human TIGIT on cells (primary T cells, transfected HEK293 cells, Jurkat reporter cells, NK cells) (human, UniProt Q495A1 22-244); test: flow cytometry on CD3+ T cells of human PBMCs
T2 construct: also called TIGIT-transfected HEK293 cells
T2 sequence: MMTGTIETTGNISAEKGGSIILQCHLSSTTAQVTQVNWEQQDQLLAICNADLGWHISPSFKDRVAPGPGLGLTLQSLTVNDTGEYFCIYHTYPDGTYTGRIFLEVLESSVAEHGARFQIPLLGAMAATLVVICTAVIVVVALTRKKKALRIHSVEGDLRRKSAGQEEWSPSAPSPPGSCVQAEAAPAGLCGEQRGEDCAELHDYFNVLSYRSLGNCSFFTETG

human TIGIT ECD T51A = target: T3, human TIGIT ECD T51A (human, UniProt Q495A1 22-141); test: SPR, antibody captured on anti-human Fc, TIGIT ECD injected
T3 construct: point mutant expressed in E. coli
T3 chain: T1 sequence with T30A

human TIGIT ECD Q53A = target: T4, human TIGIT ECD Q53A (human, UniProt Q495A1 22-141); test: as above
T4 construct: point mutant expressed in E. coli
T4 chain: T1 sequence with Q32A

human TIGIT ECD T55A = target: T5, human TIGIT ECD T55A (human, UniProt Q495A1 22-141); test: as above
T5 construct: point mutant expressed in E. coli
T5 chain: T1 sequence with T34A

human TIGIT ECD Q56A = target: T6, human TIGIT ECD Q56A (human, UniProt Q495A1 22-141); test: as above
T6 construct: point mutant expressed in E. coli
T6 chain: T1 sequence with Q35A

human TIGIT ECD N70A = target: T7, human TIGIT ECD N70A (human, UniProt Q495A1 22-141); test: as above
T7 construct: point mutant expressed in E. coli
T7 chain: T1 sequence with N49A

human TIGIT ECD A71G = target: T8, human TIGIT ECD A71G (human, UniProt Q495A1 22-141); test: as above
T8 construct: point mutant expressed in E. coli
T8 chain: T1 sequence with A50G

human TIGIT ECD Y113A = target: T9, human TIGIT ECD Y113A (human, UniProt Q495A1 22-141); test: as above
T9 construct: point mutant expressed in E. coli
T9 chain: T1 sequence with Y92A

human TIGIT ECD P114G = target: T10, human TIGIT ECD P114G (human, UniProt Q495A1 22-141); test: as above
T10 construct: point mutant expressed in E. coli
T10 chain: T1 sequence with P93G

human TIGIT ECD D115A = target: T11, human TIGIT ECD D115A (human, UniProt Q495A1 22-141); test: as above
T11 construct: point mutant expressed in E. coli
T11 chain: T1 sequence with D94A

His-tagged human TIGIT = target: T12, His-tagged human TIGIT (human, UniProt Q495A1 22-141); test: SPR Biacore, antibody captured on anti-human Fc, His-tagged TIGIT injected
T12 construct: soluble analyte in SPR
T12 sequence: T1 sequence

[3] = target: T13, His-tagged cynomolgus monkey TIGIT (cynomolgus monkey, UniProt A0A7N9I9V4 89-209); test: as above
T13 construct: also called Cyno TIGIT; cynomolgus monkey TIGIT (Novoprotein cat. No. CP02)
T13 sequence (A0A7N9I9V4 entry or part of it): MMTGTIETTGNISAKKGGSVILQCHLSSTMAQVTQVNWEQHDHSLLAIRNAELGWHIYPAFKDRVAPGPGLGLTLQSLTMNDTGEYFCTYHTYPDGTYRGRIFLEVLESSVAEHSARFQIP

[4] = target: T1, human TIGIT ECD expressed on the CHO-S …; test: flow cytometry blocking assay on CHO-S-hTIGIT cells, competitor muCD112; competitor muCD112; human IgG 3963H03-12

- ADCC EC50, nM (Donor 1005-4464) [1]: 0.026 nM
- ADCC EC50, nM (Donor 1102-7215) [1]: 0.1 nM
- ADCC EC50, nM (Donor 1106-0557) [1]: 0.059 nM
- EC50 [2]: 0.0852 µg/mL and 0.6 nM
- Kd (human TIGIT ECD T51A): 1.77 nM
- ΔΔGmut (human TIGIT ECD T51A): -0.1 kcal/mol
- ΔΔGmut (human TIGIT ECD Q53A): > 3 kcal/mol
- ΔΔGmut (human TIGIT ECD T55A): > 3 kcal/mol
- Kd (human TIGIT ECD Q56A): 33.9 nM
- ΔΔGmut (human TIGIT ECD Q56A): 1.65 kcal/mol
- Kd (human TIGIT ECD N70A): 31.5 nM
- ΔΔGmut (human TIGIT ECD N70A): 1.61 kcal/mol
- Kd (human TIGIT ECD A71G): 7.02 nM
- ΔΔGmut (human TIGIT ECD A71G): 0.72 kcal/mol
- ΔΔGmut (human TIGIT ECD Y113A): > 3 kcal/mol
- ΔΔGmut (human TIGIT ECD P114G): > 3 kcal/mol
- Kd (human TIGIT ECD D115A): 14.4 nM
- ΔΔGmut (human TIGIT ECD D115A): 1.14 kcal/mol
- Kd (His-tagged human TIGIT): 4.05 nM
- koff (His-tagged human TIGIT): 0.00067 s⁻¹
- kon (His-tagged human TIGIT): 166000 M⁻¹ s⁻¹
- Kd [3]: 0.829 nM and 0.83 nM
- koff [3]: 0.000133 s⁻¹
- kon [3]: 160000 M⁻¹ s⁻¹
- IC50 [4]: 1.68 µg/mL
B1: 3963H03-12 (antibody, human IgG1, kappa, V domains shown)
VH: QVQLVQSGSELKKPGASVKVSCKASGYTFTSYPMNWVRQAPGQGLEWMGWINTNTGNPTYAQGFTGRFVFSLDTSVSTAYLQISSLKAEDTAVYYCARVGGYSVDEYAFDVWGQGTLVTVSS
VL: DIQLTQSPSFLSASVGDRVTITCRASQGISSYLAWYQQKPGKAPKLLIYAASTLQSGVPSRFSGSGSGTEFTLTISSLQPEDFATYYCQQLSSYPTFGGGTKVEIKR
notes: also called anti-TIGIT H03-12; 39631H03-12
